Reference: US20200317768A1 (published 2020)

T1: human FcγRIIaR extracellular domain, His-tagged (human, UniProt P12318 34-217)
T1 construct: also called human FcγRIIa (type R); FcgRIIaR; not shown: C-terminal His-tag
T1 chain: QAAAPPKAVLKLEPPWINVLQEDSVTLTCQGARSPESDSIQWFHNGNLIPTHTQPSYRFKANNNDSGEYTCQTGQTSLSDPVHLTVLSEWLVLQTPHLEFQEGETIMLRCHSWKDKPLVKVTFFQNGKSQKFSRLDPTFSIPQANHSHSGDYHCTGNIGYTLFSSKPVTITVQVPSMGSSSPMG

T2: cynomolgus monkey FcγRIIa1 extracellular domain, His-tagged (cynomolgus monkey)
T2 construct: also called cyno FcγRIIa1; cynoFcgRIIa1; not shown: C-terminal His-tag
T2 chain: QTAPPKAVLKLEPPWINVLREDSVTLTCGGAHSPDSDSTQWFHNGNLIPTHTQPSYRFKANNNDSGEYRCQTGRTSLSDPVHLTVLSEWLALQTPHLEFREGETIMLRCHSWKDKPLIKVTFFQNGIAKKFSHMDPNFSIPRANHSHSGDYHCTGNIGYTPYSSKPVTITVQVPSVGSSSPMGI

T3: cynomolgus monkey FcγRIIa2 extracellular domain, His-tagged (cynomolgus monkey)
T3 construct: also called cyno FcγRIIa2; cynoFcgRIIa2; not shown: C-terminal His-tag
T3 chain: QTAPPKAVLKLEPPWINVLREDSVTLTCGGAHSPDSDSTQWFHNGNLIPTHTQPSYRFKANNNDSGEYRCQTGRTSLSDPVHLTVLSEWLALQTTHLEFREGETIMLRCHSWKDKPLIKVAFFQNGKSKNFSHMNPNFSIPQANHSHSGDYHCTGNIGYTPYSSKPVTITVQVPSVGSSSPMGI

T4: human FcγRIIb extracellular domain, His-tagged (human, UniProt P31994 43-217)
T4 construct: also called FcgRIIb (human); not shown: C-terminal His-tag
T4 sequence: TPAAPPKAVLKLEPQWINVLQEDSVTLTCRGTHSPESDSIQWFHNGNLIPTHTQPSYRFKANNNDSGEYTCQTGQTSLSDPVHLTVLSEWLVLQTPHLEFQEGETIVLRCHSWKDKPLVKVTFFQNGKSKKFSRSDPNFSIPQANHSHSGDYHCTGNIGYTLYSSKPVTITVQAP

T5: cynomolgus monkey FcγRIIIaS extracellular domain, His-tagged (cynomolgus monkey, UniProt Q8SPW2 21-206 at identity 1.00))
T5 construct: also called cyno FcγRIIIaS; cynoFcγRIIIaS; not shown: C-terminal His-tag
T5 chain: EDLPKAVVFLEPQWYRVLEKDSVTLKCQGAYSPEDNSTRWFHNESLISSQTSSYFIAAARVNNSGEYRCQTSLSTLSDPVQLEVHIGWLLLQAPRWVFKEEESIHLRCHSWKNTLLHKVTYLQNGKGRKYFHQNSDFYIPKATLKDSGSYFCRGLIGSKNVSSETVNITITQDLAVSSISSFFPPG

T6: cynomolgus monkey FcγRIIb extracellular domain, His-tagged (cynomolgus monkey)
T6 construct: also called cyno FcγRIIb; cynoFcγRIIb; not shown: C-terminal His-tag
T6 chain: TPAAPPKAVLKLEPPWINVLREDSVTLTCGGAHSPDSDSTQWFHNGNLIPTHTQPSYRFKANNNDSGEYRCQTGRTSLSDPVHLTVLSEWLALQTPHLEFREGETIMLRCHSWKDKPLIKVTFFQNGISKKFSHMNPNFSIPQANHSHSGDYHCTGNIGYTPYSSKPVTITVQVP

T7: cynomolgus monkey FcγRIIa3 extracellular domain, His-tagged (cynomolgus monkey)
T7 construct: also called cyno FcγRIIa3; cynoFcgRIIa3; not shown: C-terminal His-tag
T7 chain: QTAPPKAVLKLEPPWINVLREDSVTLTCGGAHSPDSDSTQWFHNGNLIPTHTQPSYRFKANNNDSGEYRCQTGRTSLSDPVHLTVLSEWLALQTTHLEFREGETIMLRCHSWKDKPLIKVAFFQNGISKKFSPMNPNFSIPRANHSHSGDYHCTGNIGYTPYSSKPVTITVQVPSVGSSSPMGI

T8: human FcγRIIaH extracellular domain, His-tagged (human, UniProt P12318 34-217)
T8 construct: also called human FcγRIIa (type H); FcgRIIaH; not shown: C-terminal His-tag
T8 sequence: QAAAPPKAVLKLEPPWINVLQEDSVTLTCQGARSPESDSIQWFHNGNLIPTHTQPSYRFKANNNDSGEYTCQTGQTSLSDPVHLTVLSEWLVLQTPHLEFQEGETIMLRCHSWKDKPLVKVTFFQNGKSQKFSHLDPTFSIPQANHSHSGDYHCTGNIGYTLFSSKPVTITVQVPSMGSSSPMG


Columns and labels:
Assay in all cases: SPR (BIACORE), captured antibody, FcgR as analyte
[1] = target: T1, human FcγRIIaR extracellular domain, …
Method: (§1) The kinetic analysis of interactions between these antibodies and FcγR was carried out using BIACORE® T200 or BIACORE® 4000 (GE Healthcare). HBS-EP+ (GE Healthcare) was used as the running buffer, and the measurement temperature was set to 25° C. A chip produced by immobilizing Protein A. Protein A/G or mouse anti-human IgG kappa light chain (BD Biosciences) onto a Series S Sensor Chip CM4 or CM5 (GE Healthcare) by the amine-coupling method was used. […] After the measurement, the antibody captured on the chip was washed off by allowing reaction with 10 mM glycine-HCl, pH1.5 and 25 mM NaOH so that the chip was regenerated and used repeatedly. The sensorgrams obtained as measurement results were analyzed by the 1:1 Langmuir binding model using the BIACORE® Evaluation Software to calculate the binding rate constant ka (L/mol/s) and dissociation rate constant kd (l/s), and the dissociation constant KD (mol/L) was calculated from these values. […] Regarding such interactions, KD values were calculated using the following 1:1 binding model described in BIACORE® T100 Software Handbook BR1006-48 Edition AE.

[2] = target: T9, human FcγRIIIaV extracellular domain, His-tagged (human, UniProt P08637 17-208)
T9 construct: also called FcgRIIIaV; not shown: C-terminal His-tag
T9 sequence (P08637 17-208 F176V): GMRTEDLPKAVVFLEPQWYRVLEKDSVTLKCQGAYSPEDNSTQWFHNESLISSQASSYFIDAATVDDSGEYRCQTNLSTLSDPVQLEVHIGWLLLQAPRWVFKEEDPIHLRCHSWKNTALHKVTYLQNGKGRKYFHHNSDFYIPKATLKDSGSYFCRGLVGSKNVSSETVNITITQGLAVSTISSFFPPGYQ
Method: as §1

[3] = target: T2, cynomolgus monkey FcγRIIa1 …
Method: as §1

[4] = target: T3, cynomolgus monkey FcγRIIa2 …
Method: as §1

[5] = target: T4, human FcγRIIb extracellular domain, …
Method: as §1

[6] = target: T5, cynomolgus monkey FcγRIIIaS …
Method: as §1

[7] = target: T6, cynomolgus monkey FcγRIIb extracellular …
Method: as §1

[8] = target: T7, cynomolgus monkey FcγRIIa3 …
Method: as §1

[9] = target: T8, human FcγRIIaH extracellular domain, …
Method: as §1

Row | Binder | Kd [1] [µM] | Kd [2] [µM] | Kd [3] [µM] | Kd [4] [µM] | Kd [5] [µM] | Kd [6] [µM] | Kd [7] [µM] | Kd [8] [µM] | Kd [9] [µM]
1 | M103205H795-MY449/M103202L889-SK1 (antibody, human IgG1, kappa, copies: 2 + 2) heavy: QVTLKESGPVLVKPTETLTLTCTVSGIDLSHDDISWVRQAPGKGLEWVGIISYAGSTYYASWAKGRLTISKDTSKNQVVLTMTNMDPVDTATYYCARGVPAYSHGGDLWGQGTLVTVSSASTKGPSVFPLAPSSKSTSGGTAALGCLVKDYFPEPVTVSWNSGALTSGVHTFPAVLQSSGLYSLSSVVTVPSSSLGTQTYICNVNHKPSNTKVDKKVEPKSCDKTHTCPPCPALELLTGPSVFLFPPKPKDTLMISRTPEVTCVVVDVSDEDPEVKFNWYVDGVEVHNAKTKPREEQYNSTYRVVSVLTVLHQDWLNGKEYKCKVSNKALPKPIEKTISKAKGQPREPQVYTLPPSREEMTKNQVSLTCLVKGFYPSDIAVEWESNGQPENNYKTTPPVLDSDGSFFLYSKLTVDKSRWQQGNVFSCSVMHEALHNHYTQKSLSLSP light: DIVMTQSPATLSLSPGERATLSCTSSQSVYHANWLSWFQQKPGQPPKLLIYWASTLAYGVPSRFSGSGSGTDFTLTISSLQPEDAATYYCAGGYGGGRYAFGQGTKVEIKRTVAAPSVFIFPPSDEQLKSGTASVVCLLNNFYPREAKVQWKVDNALQSGNSQESVTEQDSKDSTYSLSSTLTLSKADYEKHKVYACEVTHQGLSSPVTKSFNRGEC | 0.074 | 3.7 | 0.87 | 0.94 | 0.29 | 1 | 0.23 | 1.5 | 0.093
2 | M103205H795-MY451/M103202L889-SK1 (antibody, human IgG1, kappa, copies: 2 + 2) heavy: QVTLKESGPVLVKPTETLTLTCTVSGIDLSHDDISWVRQAPGKGLEWVGIISYAGSTYYASWAKGRLTISKDTSKNQVVLTMTNMDPVDTATYYCARGVPAYSHGGDLWGQGTLVTVSSASTKGPSVFPLAPSSKSTSGGTAALGCLVKDYFPEPVTVSWNSGALTSGVHTFPAVLQSSGLYSLSSVVTVPSSSLGTQTYICNVNHKPSNTKVDKKVEPKSCDKTHTCPPCPANELLTGPSVFLFPPKPKDTLMISRTPEVTCVVVDVSDEDPEVKFNWYVDGVEVHNAKTKPREEQYNSTYRVVSVLTVLHQDWLNGKEYKCKVSNKALPKPIEKTISKAKGQPREPQVYTLPPSREEMTKNQVSLTCLVKGFYPSDIAVEWESNGQPENNYKTTPPVLDSDGSFFLYSKLTVDKSRWQQGNVFSCSVMHEALHNHYTQKSLSLSP light: DIVMTQSPATLSLSPGERATLSCTSSQSVYHANWLSWFQQKPGQPPKLLIYWASTLAYGVPSRFSGSGSGTDFTLTISSLQPEDAATYYCAGGYGGGRYAFGQGTKVEIKRTVAAPSVFIFPPSDEQLKSGTASVVCLLNNFYPREAKVQWKVDNALQSGNSQESVTEQDSKDSTYSLSSTLTLSKADYEKHKVYACEVTHQGLSSPVTKSFNRGEC | 0.84 | 7.1 | 3.6 | 4.2 | 3 | 2.7 | 1 | 6.7 | 0.41

Other lines, results leading:

Row | Kd [1] [µM] | Kd [2] [µM] | Kd [3] [µM] | Kd [4] [µM] | Kd [5] [µM] | Kd [6] [µM] | Kd [7] [µM] | Kd [8] [µM] | Kd [9] [µM] | Binder
3 | 0.12 | 4 | 1.3 | 1.1 | 0.47 | 1.8 | 0.28 | 2.2 | 0.13 | M103205H795-MY450/M103202L889-SK1 (antibody, human IgG1, kappa, copies: 2 + 2) heavy: QVTLKESGPVLVKPTETLTLTCTVSGIDLSHDDISWVRQAPGKGLEWVGIISYAGSTYYASWAKGRLTISKDTSKNQVVLTMTNMDPVDTATYYCARGVPAYSHGGDLWGQGTLVTVSSASTKGPSVFPLAPSSKSTSGGTAALGCLVKDYFPEPVTVSWNSGALTSGVHTFPAVLQSSGLYSLSSVVTVPSSSLGTQTYICNVNHKPSNTKVDKKVEPKSCDKTHTCPPCPAMELLTGPSVFLFPPKPKDTLMISRTPEVTCVVVDVSDEDPEVKFNWYVDGVEVHNAKTKPREEQYNSTYRVVSVLTVLHQDWLNGKEYKCKVSNKALPKPIEKTISKAKGQPREPQVYTLPPSREEMTKNQVSLTCLVKGFYPSDIAVEWESNGQPENNYKTTPPVLDSDGSFFLYSKLTVDKSRWQQGNVFSCSVMHEALHNHYTQKSLSLSP light: DIVMTQSPATLSLSPGERATLSCTSSQSVYHANWLSWFQQKPGQPPKLLIYWASTLAYGVPSRFSGSGSGTDFTLTISSLQPEDAATYYCAGGYGGGRYAFGQGTKVEIKRTVAAPSVFIFPPSDEQLKSGTASVVCLLNNFYPREAKVQWKVDNALQSGNSQESVTEQDSKDSTYSLSSTLTLSKADYEKHKVYACEVTHQGLSSPVTKSFNRGEC
4 | 0.62 | 6.1 | 3.4 | 3.1 | 2.9 | 2.8 | 0.92 | 6.5 | 0.36 | M103205H795-MY452/M103202L889-SK1 (antibody, human IgG1, kappa, copies: 2 + 2) heavy: QVTLKESGPVLVKPTETLTLTCTVSGIDLSHDDISWVRQAPGKGLEWVGIISYAGSTYYASWAKGRLTISKDTSKNQVVLTMTNMDPVDTATYYCARGVPAYSHGGDLWGQGTLVTVSSASTKGPSVFPLAPSSKSTSGGTAALGCLVKDYFPEPVTVSWNSGALTSGVHTFPAVLQSSGLYSLSSVVTVPSSSLGTQTYICNVNHKPSNTKVDKKVEPKSCDKTHTCPPCPAQELLTGPSVFLFPPKPKDTLMISRTPEVTCVVVDVSDEDPEVKFNWYVDGVEVHNAKTKPREEQYNSTYRVVSVLTVLHQDWLNGKEYKCKVSNKALPKPIEKTISKAKGQPREPQVYTLPPSREEMTKNQVSLTCLVKGFYPSDIAVEWESNGQPENNYKTTPPVLDSDGSFFLYSKLTVDKSRWQQGNVFSCSVMHEALHNHYTQKSLSLSP light: DIVMTQSPATLSLSPGERATLSCTSSQSVYHANWLSWFQQKPGQPPKLLIYWASTLAYGVPSRFSGSGSGTDFTLTISSLQPEDAATYYCAGGYGGGRYAFGQGTKVEIKRTVAAPSVFIFPPSDEQLKSGTASVVCLLNNFYPREAKVQWKVDNALQSGNSQESVTEQDSKDSTYSLSSTLTLSKADYEKHKVYACEVTHQGLSSPVTKSFNRGEC
